The values below are quoted from earlier work in article PMC10339233.

pKd: −log10 of the molar value.

In the series the target is thrombomodulin EGF-like domains 4-6 (Homo sapiens) (UniProt P07204). Kind of series: SPR.

thrombin (from UniProt P00734): the pKd is 8.40.
